Experiment [1] addresses T1, recombinant human CD73 protein (human, UniProt P21589 27-547).
T1 construct: Bought soluble protein; The background says that CD73 forms a homodimer; also called soluble CD73; free CD73 protein
T1 sequence (looked up): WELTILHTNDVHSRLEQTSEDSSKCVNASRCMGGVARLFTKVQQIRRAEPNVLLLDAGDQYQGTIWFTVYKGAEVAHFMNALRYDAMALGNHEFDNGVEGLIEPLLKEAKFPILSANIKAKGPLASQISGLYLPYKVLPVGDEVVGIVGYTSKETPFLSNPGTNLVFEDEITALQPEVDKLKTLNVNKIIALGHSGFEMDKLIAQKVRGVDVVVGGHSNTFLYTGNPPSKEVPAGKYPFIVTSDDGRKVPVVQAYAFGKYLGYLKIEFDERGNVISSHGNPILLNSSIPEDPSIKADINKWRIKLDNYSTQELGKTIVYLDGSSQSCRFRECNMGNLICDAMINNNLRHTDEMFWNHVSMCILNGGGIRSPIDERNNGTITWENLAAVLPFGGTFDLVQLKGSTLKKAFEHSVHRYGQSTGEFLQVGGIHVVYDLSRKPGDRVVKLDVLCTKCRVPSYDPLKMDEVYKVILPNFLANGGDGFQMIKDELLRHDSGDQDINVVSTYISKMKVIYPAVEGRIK
Put plainly: ELISA, plate coated with recombinant human CD73 at 1 µg/mL. As for the experimental part: The obtained eukaryotic expression vectors were transiently transferred into HEK293 cells, and the cells were then cultured for 6 days. The culture supernatants were harvested and purified by a ProteinA column to obtain the target antibodies, which were named 7C3C2-hIgG1 and 1F2F9-hIgG1, respectively. The affinity of the antibodies for the recombinant human CD73 protein (as described in Example 1) was determined using ELISA method. A elisa plate was coated with the recombinant human CD73 protein at a concentration of 1 μg/mL and washed 3 times with a PBST buffer. Then, the plate was blocked with a PBS buffer containing 2% BSA at 37° C. for 2 h and washed 3 times with a PBST buffer. 5-fold gradient dilutions (0-133.3 nM) of the test antibodies were added, and the mixture was incubated at 37° C. for 2 h. The plate was further washed 3 times with a PBST buffer. A horseradish peroxidase-labeled secondary antibody was added, and the mixture was incubated at 37° C. for 1 h. The plate was then washed 3 times with a PBST buffer. Chromogenic reaction was performed, and the absorbance values were read after the reaction was terminated.

In experiment [2] the target is T1, recombinant human CD73 protein. Put plainly: BLI (Fortebio), human CD73 on HIS1K biosensors, antibody as analyte. As for the experimental part: The humanized antibody VH and VL were separately constructed into eukaryotic expression vectors containing the hIgG1-kappa constant region with L234A, L235A, P329A and P331S mutations (abbreviated as hIgG1 in the present application). The affinity of all humanized antibodies was assayed in this example. Human CD73 protein was immobilized onto HIS1K biosensors to achieve a binding response threshold of 0.3 nm. After a 120-second baseline step, the sensors were separately immersed in anti-CD73 antibody analytes diluted in a gradient with a 0.02% PBST buffer (each antibody was diluted in a 2-fold gradient with an initial concentration of 25 nM, resulting in 7 concentration gradients). The times for the ligand-analyte binding and dissociation were 120 s and 300 s, respectively. The data of the antigen-antibody affinity were calculated by regression according to the binding curves using an analysis software.

In experiment [3] the target is T2, cynomolgus monkey CD73 protein (cynomolgus monkey, UniProt A0A2K5V5U7 27-547).
T2 construct: construct not described
T2 sequence: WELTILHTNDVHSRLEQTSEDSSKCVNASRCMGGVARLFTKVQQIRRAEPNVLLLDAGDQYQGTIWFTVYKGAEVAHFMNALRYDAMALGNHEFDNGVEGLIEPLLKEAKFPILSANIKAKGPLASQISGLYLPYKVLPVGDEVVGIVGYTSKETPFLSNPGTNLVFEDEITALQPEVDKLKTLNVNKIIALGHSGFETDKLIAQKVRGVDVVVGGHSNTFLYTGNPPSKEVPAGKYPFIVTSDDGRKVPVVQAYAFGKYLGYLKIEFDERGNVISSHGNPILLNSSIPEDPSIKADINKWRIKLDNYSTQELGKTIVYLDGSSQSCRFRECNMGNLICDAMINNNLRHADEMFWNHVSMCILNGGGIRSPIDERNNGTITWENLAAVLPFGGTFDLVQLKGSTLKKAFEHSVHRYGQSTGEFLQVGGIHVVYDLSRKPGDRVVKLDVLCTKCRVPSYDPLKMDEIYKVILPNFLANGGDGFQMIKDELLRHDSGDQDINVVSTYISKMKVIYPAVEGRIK
The experiment can be described thus: BLI (Fortebio), cynomolgus CD73 on HIS1K biosensors, antibody as analyte. The procedure: In this example, the cross-binding ability of the exemplary humanized anti-CD73 antibodies of the present application to cynomolgus monkey CD73 was assayed by a Fortebio experiment. The specific implementation steps included immobilizing the cynomolgus monkey CD73 protein onto HIS1K biosensors. […] The times for the ligand-analyte binding and dissociation were 120 s and 300 s, respectively. The data of the antigen-antibody affinity were calculated by regression according to the binding curves using an analysis software.

The target of experiment [4] is T3, human CD73 on the cell surface (MDA-MB-231 and SKOV3 tumor cells) (human, UniProt P21589 27-549).
T3 construct: whole, on cells; also called cell surface CD73; CD73 on the surface of human tumor cells
T3 sequence (looked up): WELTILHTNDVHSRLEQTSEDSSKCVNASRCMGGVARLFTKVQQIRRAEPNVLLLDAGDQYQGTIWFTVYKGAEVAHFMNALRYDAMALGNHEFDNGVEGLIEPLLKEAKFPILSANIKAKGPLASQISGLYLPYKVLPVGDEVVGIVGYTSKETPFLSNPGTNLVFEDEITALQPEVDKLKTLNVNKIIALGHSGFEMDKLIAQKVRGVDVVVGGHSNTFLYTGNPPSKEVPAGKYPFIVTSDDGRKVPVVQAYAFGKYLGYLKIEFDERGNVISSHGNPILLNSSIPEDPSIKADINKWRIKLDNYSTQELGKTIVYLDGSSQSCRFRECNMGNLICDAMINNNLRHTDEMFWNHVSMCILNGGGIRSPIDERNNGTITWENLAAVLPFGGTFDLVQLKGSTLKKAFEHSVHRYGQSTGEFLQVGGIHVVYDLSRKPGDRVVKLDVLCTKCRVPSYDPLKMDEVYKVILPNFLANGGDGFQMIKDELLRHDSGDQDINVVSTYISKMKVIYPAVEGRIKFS
The experiment can be described thus: flow cytometry on MDA-MB-231 cells. As for the experimental part: (§1) In this example, the exemplary antibodies of the present application were compared with anti-CD73 antibodies described in other patent applications. Antibodies MEDI9447 and Hu101-28 (with CDR sequences from PCT patent applications WO 2016/075099 and WO 2018/137598, respectively) were cloned into eukaryotic expression vectors containing the hIgG1-kappa constant region. The binding ability of the humanized antibodies Hab7C3C2.5 and Hab1F2F9.15 to cell surface CD73 was assessed using tumor cell lines MDA-MB-231 and SKOV3 which endogenously express human CD73 on the cell surface. The cells were seeded in a 96-well plate at a density of 2×10⁶ cells/mL, with 100 μL per well. 4-fold gradient dilutions (0-100 nM) of the antibodies were added, and the mixture was incubated at 4° C. for 1 h. A goat anti-human secondary antibody was added, and the mixture was incubated at 4° C. in the dark for 50 min for labeling. The fluorescence intensity of the cells was then measured by a flow cytometer.
Background: A flow cytometer gives signals particle by particle.

In experiment [5] the target is T3, human CD73 on the cell surface …. The experiment can be described thus: flow cytometry on SK-OV-3 cells. The procedure:
as §1

B1: 7C3C2-hIgG1 (antibody, V domains shown)
VH: QVQLQQSGPELVKPGASVKLSCKASGYTFTSYDINWVKQRPGQGLEWIGWIYPRDGFTKYNEKFKGKATLTVDTSSSTAYMELHSLTSEDSAVYFCARKEGYRGDWYFDVWGTGTTVTVSS
VL: DIQMTQSPASLSASVGETVTITCRASGNVHNYLAWYQQKQGKSPQLLVYNAKTLADGVPSRFSGSGSGTQYSLKINSLQPEDFGSYYCQHFWSTPWTFGGGTELEIKR
notes: Human-mouse chimeric antibody, expressed in HEK293, Protein A purified; also called 7C3C2 chimeric antibody
Broadly, the EC50 is the concentration needed to bring the measured effect to its halfway point. As to B1, in experiment [1], the EC50 is 0.017 nM.

B2: Hab1F2F9.12 (antibody, human IgG1, kappa, L234A L235A, V domains shown)
VH: QVQLVQSGAEVKKPGASVKVSCKASGYTFTSYWMHWVRQAPGQRLEWMGNINPSNGGTKYNEKFQGRVTITVDTSASTAYMELSSLRSEDTAVYYCARRDYGSPSYWGQGTTVTVSS
VL: DIQMTQSPSSLSASVGDRVTITCKASQDINSYLTWFQQKPGKAPKSLIYRTNILLDGVPSRFSGSGSGTDYTLTISSLQPEDFATYYCLQYHEFPVTFGGGTKLEIKR
notes: Humanized 1F2F9; also called Huab1F2F9.12
One may read the Kd as a measure of binding affinity in units of concentration. A word on the koff: it is a measure of how fast the partners let go of each other. Usually kon stands for a measure of how fast the partners come together. On to B2, for which, in experiment [2], the dissociation constant (Kd) came out at 0.72 nM, the koff was 0.00133 s⁻¹ and the kon was determined as 1.85e+06 M⁻¹ s⁻¹. In experiment [3], this molecule registered a Kd of 0.681 nM, a koff of 0.00152 s⁻¹ and a kon of 2.22e+06 M⁻¹ s⁻¹.

B3: 1F2F9-hIgG1 (antibody, V domains shown)
VH: QVQLQQPGTELVKPGASVKLSCKASGYTFTSYWMHWVKQRPGHGLEWIGNINPSNGGTKYNEKFKSKATLTVDKSSSTAYLQLSSLTSEDSAVYYCARRDYGSPSYWGQGTLVTVSA
VL: DIKMTQSPSSIYASLGERVTITCKASQDINSYLTWFQQKVGKSPKTLIYRTNILLDGVPSRFSGSGSGQDYSLTISSLDYEDMGIYHCLQYHEFPVTFGAGTKLELKR
notes: Human-mouse chimeric antibody, expressed in HEK293, Protein A purified; also called 1F2F9 chimeric antibody
As for B3, the EC50 in experiment [1] came to 0.028 nM.

B4: MEDI9447 (antibody, V domains shown)
VH: EVQLLESGGGLVQPGGSLRLSCAASGFTFSSYAYSWVRQAPGKGLEWVSAISGSGGRTYYADSVKGRFTISRDNSKNTLYLQMNSLRAEDTAVYYCARLGYGRVDEWGRGTLVTVSS
VL: QSVLTQPPSASGTPGQRVTISCSGSLSNIGRNPVNWYQQLPGTAPKLLIYLDNLRLSGVPDRFSGSKSGTSASLAISGLQSEDEADYYCATWDDSHPGWTFGGGTKLTVLG
For B4, the EC50 in experiment [4] stood at 0.49 nM; in experiment [5], 0.17 nM.

B5: Hab7C3C2.9 (antibody, human IgG1, kappa, L234A L235A, V domains shown)
VH: QVQLVQSGAEVKKPGASVKVSCKASGYTFTSYDINWVRQATGQGLEWMGWIYPRDGFTKYAQKFQGRVTITVNTSISTAYMELSSLRSEDTAVYYCARKEGYRGDWYFDVWGQGTTVTVSS
VL: DIQMTQSPSSLSASVGDRVTITCRASGNVHNYLAWYQQKPGKAPKLLLYNAKTLASGVPSRFSGSGSGTDYTLTISSLQPEDFATYYCQHFWSTPWTFGGGTELEIKR
notes: Humanized 7C3C2; also called Huab7C3C.9
Turning to B5, in experiment [2], the Kd worked out at 1.03 nM, the koff amounted to 0.00381 s⁻¹ and the kon is 3.7e+06 M⁻¹ s⁻¹. Further, in experiment [3], binding was characterised by a dissociation constant (Kd) of 0.852 nM, the koff was found to be 0.00388 s⁻¹ and the kon came out at 4.56e+06 M⁻¹ s⁻¹.

These data come from patent publication US20260152567A1 (CSPC MEGALITH BIOPHARMACEUTICAL, published 2026).
